From the domain aggregation screens of Martell et al. (2025)

Experiment: soluble fraction after stress (log2 fold change); higher = more stays soluble; pooled small domains, quantitative proteomics
Conditions: stress: 75 degC
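Note: 20 min heating vs room temperature control held 20 min.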

Row | Sequence | soluble fraction (log2)
1 | HMYLYHDLSDEAKAMGDEYVSVEHLVLALIRYPNNAVKELFREFGITRERFLQVLSTIRGNQRVTSDNPEA | 0.0272
2 | HMYMFSGQRLKSLRKEKKMSQEKLGSLLNISKVAVSNWENAKSFPTMDNLNELAKVLEVEPHYF | -1.33
3 | HMYMKLSVKDAALFLSVSPETVYRWVKQEEIPYHTVNDQLRFNRAELLEWATARSLEVSPDLFVP | -3.84
4 | HMYMWQVEDLIRANGLDIERIKDSIIRPYELDEERKRELTQWYEDLIDMMRREGVAQSGHLQIN | -3.28
5 | HMYNMEELAGHTEKVYNSLPEELKLVIKLREIENMSYDEISLKTGMPIGTVRSRLHRAREILVDSLKDY | -1.28
6 | HMYQNRLFYTLKTGETVADLSKSQDINLSTIWSLNKHLYSSESEMMKAAPGQQIILPLKKLP | -0.247
7 | HMYQPLRDVIFETLRKAIVSGDIKPGERLMEVSLANQMGVSRTPVREAIRRLEAEGLVTMTPRKGTHVAE | -0.891
8 | HMYQRLPFSFANRYKMVLESQHPERAPILYYVEPLKSAAIIEVSRVVKNGFTPQAITLDEFDKKLTDAYQR | -1.43
9 | HMYRLSPSWRIVERDDGFEIYGGDDARFQLDPSPLVSRLAAGDAVTRDGLDPTGAIEFEQLLSAGMIRPEI | -0.263
10 | HMYRYTTFKVKEADTLLPFIQKSLNGISHNRAKAILTGGGVLVDKKITRAYDFALRPGMTVEISKSKP | -1.72
11 | HMYRYYSTLRPITPGAYPKPADNPAMLIHNFDNREYVGKIGREAWGYVEYNNPLTKEQIEAFDFVAE | 0.0626
12 | HMYSDIERAMTNAPEQFANKQAVLDFLNKNRIKKSEVDDYRIASLLKLYDDASPISKTEIISQVRT | 0.396
13 | HMYSDQRMEIFLEHLPDFIEQLSHKHVTRQMVWEDYRMIYPDGYGKSQFFFHLAQNLKAQKP | -3.21
14 | HMYSYSFTSSEGSTFEGQLIRVEESQVTILRYADQKEFSIPKSRFIEADQVYFERWAIENPQL | -4.18
15 | HMYSYSGSVSNTHDVPVSVVLKDAEGVAIASWDLQAKQSLNISAKDIATSSGTIEITGDGVSETKTVTFTK | 1.03
16 | HMYTVKELSRLTGLTPRTLRYYDAIGLLSPARNRDNDYRLYGGAEVDRLQEILLYREMGLPLEEIGRILD | -1.51
17 | HMYTVQPHESLWSIAASQLGDGHRFTEIVDLNQELLGGKANFIKPGWVLQIP | -0.362
18 | HMYTVVVGDSPSLIADKTGVPLKELTAMNPNLSDNFLPGKQLL | -0.0135
19 | HMYVEVPNFIGVPLVKVQSELASLGLVFNKSVVYQTSPYLKGNILDQRPLPGEVVPLNTEMSFTVSSGPA | -0.5
20 | HMYVKIAADAAMPYTIKRVVTDYSSAALDAAYDGSLPKWLTISSSTKDAGSGLYRHEIIYTVTAHPE | -0.666
21 | HMYVYEPGEFAVRGSILDVYSYASEFPYRIDFFGDDVESIRTFEVQTQLSKEAKDRVSIVPDTEQ | -0.258
22 | HMYYNDEELDGYRGTPSDAYSDNAVEEFREVLYTLREDEVSGWVRSLQLRGIFLPDAIKDETFLI | -1.33
23 | HMYYTAPDGRKREILDAALRLIAAGGPDSLTYRRVADEAGVPLGSLTYYFEAREDLIREAFRLYIAEASR | -3.16
